# Experiment: yeast display, Sf9 membrane polyspecificity reagent, FACS + sequencing; frameworks hold sequencing errors
# How it was run: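 Synthetic nanobody libraries on Saccharomyces cerevisiae BJ5465 were galactose-induced for 36–48 hours, stained 1 hour at 4 °C with 10% biotinylated, detergent-solubilized Sf9 membrane reagent and enriched on streptavidin microbeads. FACS then separated cells into low and high (top ~1%) gates by anti-HA (expression) and streptavidin (reagent binding) fluorescence. Genes were colony-PCR amplified, MiSeq 2 × 250 sequenced and CDR-length filtered. A clone's polyreactivity label is that of its gate of origin.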
row,Sequence,polyreactivity (PSR sort gate)
1,QVQLVESGGGLVQAGGSLRLSCAASGSTFAGNAMGWYRQAPGKERELVAAIDSSTGSTYYADSVKGRFTISRDNAKNTVYLQMNSLKPEDTAVYYCNNTSFLVKLDYWGQGTQVTVSS,low polyreactivity
2,QVQLVESGGGLVQAGGSLRLSCAASGSTFAGNAMGWYRQAPGKERELVAAIDSSTGSTYYADSVKGRFTISRDNAKNTVYLQMNSLKPEDTAVYYSNAEIYPIVKAGRQHPRRYDYWGQGTQVTVSS,low polyreactivity
3,QVQLVESGGGLVQAGGSLRLSCAASGSTFAGNAMGWYRQAPGKERELVAAISSSGAGTYYADSVKGRFTISRDNAKNTVYLQMNSLKPEDTAVYYCNVGSRALRRRVRSVSFDYWGQGTQVTVSS,low polyreactivity
4,QVQLVESGGGLVQAGGSLRLSCAASGSTFAGNTMGWYRQAPGKERELVAAITWNGGRTRYADSVKGRFTISRDNAKNTVYLQMNSLKPEDTAVYYCNAGPWYENMDYWGQGTQVTVSS,high polyreactivity
5,QVQLVESGGGLVQAGGSLRLSCAASGSTFAGYALGWYRQAPGKERELVADITWSGGSTYYADSVKGRFTISRDNAKNTVYLQMNSLKPEDTAVYYCAAAGYYSDMDYWGQGTQVTVSS,low polyreactivity
6,QVQLVESGGGLVQAGGSLRLSCAASGSTFAGYVMGFYIQATGKERELVAAISGSGGSTYYADSVKGRFTISRDNAKKTVYLQMNSLKPEDTAVYYCAKRAIIKYRGGYGYWGQGTQVTVSS,high polyreactivity
7,QVQLVESGGGLVQAGGSLRLSCAASGSTFAINAMGWYRQAPGKERELVAAISSSGSTNYADSVKGRFTISRDNAKNTVYLQMNSLKPEDTAVYYCAADQYWDGYDFLYDYWGQGTQVTVSS,low polyreactivity
8,QVQLVESGGGLVQAGGSLRLSCAASGSTFAINAMGWYRQAPGKERELVAAMSSSGSTNYADSGNGRFTISRDNAKNTVYLQMNSLKPEDTAVYYCAADRVWGTPQAYVPSQFDYWGQGTQVTVSS,low polyreactivity
9,QVQLVESGGGLVQAGGSLRLSCAASGSTFAIYAMGWYRQAPGKERELVAAINSGGSTNYADSVKGRFTISRDNAKNTVYLQMNSLKPEDTAVYYCNTDAWHETPVSGYSWGQGTQVTVSS,low polyreactivity
10,QVQLVESGGGLVQAGGSLRLSCAASGSTFAIYAMGWYRQAPGKERELVAAITRGSTSYADSVKGRFTISRDNAKNTVYLQMYSLKPEDTAVYYCAADSSRYGVIRDFDYWGQGTQVTVSS,high polyreactivity
11,QVQLVESGGGLVQAGGSLRLSCAASGSTFAKYVMGWYRQAPGKERELVAAISTRGTRTYYADSVKGRFTISRDTAKNTVYLQMNSLKPEDTAVYYCAVVTIISSRLGNYWGQGTQVTVSS,high polyreactivity
12,QVQLVESGGGLVQAGGSLRLSCAASGSTFAPNAMGWYRQAPGKERELVAAISSGSSTYYADSVKGRFTISRDNAKNTVYLQMNSLKPEDTAVYYCARRVSWGYYYWGQGTQVTVSS,high polyreactivity
13,QVQLVESGGGLVQAGGSLRLSCAASGSTFAPNAMGWYRQAPGKERELVAAISSGSSTYYADSVKGRFTISRDNAKNTVYLQMNSLKQEVNAVYYCAARSTYYSRKQLVDYWGQGTQVTVSS,high polyreactivity
14,QVQLVESGGGLVQAGGSLRLSCAASGSTFAPNAMGWYRQAPGKERELVAVIDSGDGTTYYADSVKGRFTISRDNAKNTVYLQMNSLKPEDTAVYYCAVDESTSYYDDHEDYWGQGTQVTVSS,low polyreactivity
15,QVQLVESGGGLVQAGGSLRLSCAASGSTFAPYAMGWYRHAPGKERELVASIRSTGSTNYADSVKGRFTISRDNAKNTVYLQMNSLKPEDTAVYYCAARYRRYQYRVKVDYYYWGQGTQVTVSS,high polyreactivity
16,QVQLVESGGGLVQAGGSLRLSCAASGSTFAPYAMGWYRQAPGKERELVAVISSAGSTYYADSVKGRFTLSRDNAKNTDYLQRNSLKPEDTAVYYCAARAPSSISQSRGMYYWGQATQVTVSS,high polyreactivity
17,QVQLVESGGGLVQAGGSLRLSCAASGSTFAQNAMGWYRQAPGKERELVAAISRRGGSTYYADSVKGRFTISRDNAKNTVYLQMNSLKPEDTAVYYCAADQPVRQHHRDDYWGQGTQVTVSS,low polyreactivity
18,QVQLVESGGGLVQAGGSLRLSCAASGSTFAQNAMGWYRQAPGKERELVAAISRRGTITNYADSVKGRFTISRDNAKNTVYLQMNSLKPEDTAVYYCAKEGTWTGGSDNYWGQGTQVTVSS,high polyreactivity
19,QVQLVESGGGLVQAGGSLRLSCAASGSTFAQNTMGSYRQAPGKERELVATISDGGGSTYYADSVKGRFTISRDNAKNTVYLQMNSLKPEDTAVYYCNTDRFWPSYYWGQGTQVTVSS,low polyreactivity
20,QVQLVESGGGLVQAGGSLRLSCAASGSTFARNVMGWYRQAPGKERELVAAISWRGGRTYYADSVKGRFTISRDNAKNTVYLQMNSLKPEDTAVYYCNAVKRLKVTHSYEYGYWGQGTQVTVSS,high polyreactivity
21,QVQLVESGGGLVQAGGSLRLSCAASGSTFARYAMGWSRQAPGKERELVAAISDSSGSTYYADSVKGRFTISRDNAKNTVYLQMNSLKPEDTAVYYCRYYFGSGYYYWGQGTLVTVSS,high polyreactivity
22,QVQLVESGGGLVQAGGSLRLSCAASGSTFARYAMGWYRQAHGKERELVAAISRRGGSTYYADSVKGRFTISRDNAKNTVYVQMNSLKPEDTAVHYCAARYGIISSFEYDYWGQGTQVTVSS,high polyreactivity
23,QVQLVESGGGLVQAGGSLRLSCAASGSTFARYAMGWYRQAPGKERELFAVITWTGGSTYYADSVKGRFTISRDNAKNTVYLQMNSLKPEDTAVYYCAADFRYYVTALKYDYWGQGTQVTVSS,low polyreactivity
24,QVQLVESGGGLVQAGGSLRLSCAASGSTFARYAMGWYRQAPRKERELVAAISRSGGSTNYADSVKGRFTISRDNAKNTVYLQMNSLKPEDTAVYYCAVRSGYYDKYVRGYDYWGQGTQVTVSS,high polyreactivity
25,QVQLVESGGGLVQAGGSLRLSCAASGSTFARYTMGWYRQAPGKERELVAAITSNGVSTYYADSVKGRFTISRDNAKNTVYLQMNSLKPEDTAVYYCAAEYRPRYKRIWVVTKDYWGQGTQVTVSS,low polyreactivity
26,QVQLVESGGGLVQAGGSLRLSCAASGSTFASHVMGWYRQAPGKERELVAAITRGDRTHYADSVKGRFTISRDNAKNTVYLQMNSLKPEDTAVYYCAKVTTLGRSRDYWGQGTQVTVSS,low polyreactivity
27,QVQLVESGGGLVQAGGSLRLSCAASGSTFASNAMGWDRQAPGKERELVAVITWRGDRTYYADSVKGRFTISRDNAKNTVYLQMNSLKPEDTAVYYCAADAYRRYGVGWEDYWGQGTQVTVSS,high polyreactivity
28,QVQLVESGGGLVQAGGSLRLSCAASGSTFATNAMGWDRQAPGKERELVASISSGGSTTYADSVKGRFTISRDNAKNTVYLQMNSLKPEDTAVYYCNKRYLWRNSRGFDYWGQGTQVTVSS,low polyreactivity
29,QVQLVESGGGLVQAGGSLRLSCAASGSTFATYAMGWYRQAPGKERELVAAITSGGSTYYADSVKGRFTISRDNAKNTFYFQMNSLKPEDTAVYYCAARSAGWRRATYYKREEYWGQGTQVTVSS,high polyreactivity
30,QVQLVESGGGLVQAGGSLRLSCAASGSTFATYTMGWYRQAPGTERELVAAITGSVGSTYYADSVMGRFTISRDNAKNTVYVQMNSRKPQDTAVFYCAARGYRTRRGFTYQYRYEYWGQGTQVTVSS,high polyreactivity
